Measurements as given in patent publication US20260078186A1 (HEFEI TG IMMUNOPHARMA, published 2026).

B1: murine 19B8 antibody (19B8-mIgG1 heavy chain / 19B8-mK light chain) (antibody)
heavy: EVQLQQSGPDLVKPGASVKISCKASGYSFTGYYMHWVKQSHVKSLEWIGRINPYNGATTYSQNFKDKASLTVDKSSSTAYMELHSLTSEDSAVYYCVPTGMGYFLMDYWGQGTSVTVSSAKTTPPSVYPLAPGSAAQTNSMVTLGCLVKGYFPEPVTVTWNSGSLSSGVHTFPAVLQSDLYTLSSSVTVPSSPRPSETVTCNVAHPASSTKVDKKIVPRDCGCKPCICTVPEVSSVFIFPPKPKDVLTITLTPKVTCVVVDISKDDPEVQFSWFVDDVEVHTAQTQPREEQFNSTFRSVSELPIMHQDWLNGKEFKCRVNSAAFPAPIEKTISKTKGRPKAPQVYTIPPPKEQMAKDKVSLTCMITDFFPEDITVEWQWNGQPAENYKNTQPIMNTNGSYFVYSKLNVQKSNWEAGNTFTCSVLHEGLHNHHTEKSLSHSPGK
light: DIVMTQSHKFMSASVGDRVSITCKASQDVGSAVVWYRQKPGQSPKLLIYWASTRHTGVPDRFTGSGSGTDFTLTISNVQSEDLADYFCQQFTSYPTFGSGTRLEIKRADAAPTVSIFPPSSEQLTSGGASVVCFLNNFYPKDINVKWKIDGSERQNGVLNSWTDQDSKDSTYSMSSTLTLTKDEYERHNSYTCEATHKTSTSPIVKSFNRNEC
notes: Recombinant murine IgG1/kappa made in ExpiCHO-S cells; also called murine PD-L1 antibody 19B8; murine PD-L1 antibody (19B8)
B2: humanized PD-L1 antibody h19B8-hIgG1LALA (h19B8-hIgG1LALA heavy chain / h19B8-hK light chain) (antibody, V domains shown)
VH: QVQLVQSGAEVKKPGASVKVSCKASGYSFTGYYMHWVRQAPGQGLEWIGRINPYNGATTYSQNFKDRATMTVDTSISTAYMELSRLRSDDTAVYYCVPTGMGYFLMDYWGQGTLVTVSS
VL: DIQLTQSPSFLSASVGDRVTITCKASQDVGSAVVWYQQKPGKAPKLLIYWASTRHTGVPSRFSGSGSGTEFTLTISSLQPEDFATYFCQQFTSYPTFGQGTKLEIKR
notes: also called humanized 19B8 antibody; h19B8 monoclonal antibody
B3: chimeric antibody 19B8-hIgG1LALA (19B8-hIgG1LALA heavy chain / 19B8-hK light chain) (antibody)
heavy: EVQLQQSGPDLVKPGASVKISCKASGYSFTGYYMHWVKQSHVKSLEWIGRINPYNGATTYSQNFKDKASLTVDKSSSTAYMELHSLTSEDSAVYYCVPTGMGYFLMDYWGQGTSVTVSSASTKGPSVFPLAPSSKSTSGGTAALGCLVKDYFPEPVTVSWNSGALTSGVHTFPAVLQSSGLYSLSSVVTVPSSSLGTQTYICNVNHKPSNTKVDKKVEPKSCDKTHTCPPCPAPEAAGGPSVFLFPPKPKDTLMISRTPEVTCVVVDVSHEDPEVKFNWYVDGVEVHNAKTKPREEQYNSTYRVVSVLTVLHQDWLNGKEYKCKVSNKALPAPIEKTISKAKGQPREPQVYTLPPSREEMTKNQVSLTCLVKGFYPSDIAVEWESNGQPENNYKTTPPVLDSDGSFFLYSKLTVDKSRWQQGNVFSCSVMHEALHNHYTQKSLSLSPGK
light: DIVMTQSHKFMSASVGDRVSITCKASQDVGSAVVWYRQKPGQSPKLLIYWASTRHTGVPDRFTGSGSGTDFTLTISNVQSEDLADYFCQQFTSYPTFGSGTRLEIKRTVAAPSVFIFPPSDEQLKSGTASVVCLLNNFYPREAKVQWKVDNALQSGNSQESVTEQDSKDSTYSLSSTLTLSKADYEKHKVYACEVTHQGLSSPVTKSFNRGEC
notes: Murine 19B8 variable regions on human IgG1 LALA / human kappa constant regions; also called 19B8 chimeric antibody; human-murine chimeric PD-L1 antibody

Key:
[1] = molecular target: T1, Human PD-L1-Fc fusion protein (purchased from Acro) (human, UniProt Q9NZQ7 19-238); experiment: ELISA, PD-L1-Fc coated at 1 µg/ml, anti-mouse IgG-HRP
T1 construct: extracellular domain; also called PD-L1 fusion protein; PD-L1 extracellular region protein; not shown: Fc part of the bought fusion protein
T1 sequence (Q9NZQ7 19-238): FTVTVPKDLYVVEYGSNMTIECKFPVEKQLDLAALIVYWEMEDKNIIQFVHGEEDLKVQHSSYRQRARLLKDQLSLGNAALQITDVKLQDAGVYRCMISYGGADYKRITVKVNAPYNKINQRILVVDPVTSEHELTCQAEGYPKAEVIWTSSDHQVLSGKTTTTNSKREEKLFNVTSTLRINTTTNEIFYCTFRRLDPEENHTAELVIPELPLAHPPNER

[2] = molecular target: T2, PD-L1 on the surface of tumor cells (human lung adenocarcinoma A549 cells, human melanoma A375 cells) (human, UniProt Q9NZQ7 19-290); experiment: flow cytometry on A549 cells
T2 construct: whole, on cells; No PD-L1-negative control cell is described; also called PD-L1 protein on the surface of tumor cells
T2 sequence (Q9NZQ7 19-290): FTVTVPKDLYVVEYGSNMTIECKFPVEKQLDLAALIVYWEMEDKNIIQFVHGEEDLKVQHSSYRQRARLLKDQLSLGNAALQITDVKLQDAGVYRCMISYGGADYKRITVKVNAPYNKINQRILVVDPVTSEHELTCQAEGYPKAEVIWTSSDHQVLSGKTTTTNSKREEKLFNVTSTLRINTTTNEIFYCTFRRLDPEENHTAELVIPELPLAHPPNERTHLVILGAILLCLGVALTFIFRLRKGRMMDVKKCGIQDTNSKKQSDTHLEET
Description: 1 mL of PBS was added to the EP tube. […] The supernatant was discarded, and the system was washed again with PBS. […] The system was washed twice with PBS, and the supernatant was discarded after centrifugation. The cells were resuspended with 200 μL/tube PBS and detected by flow cytometry.

[3] = molecular target: T1, Human PD-L1-Fc fusion protein …; experiment: ELISA, PD-L1-Fc coated at 1 µg/ml; h19B8 binds slightly more strongly than CD3×h19B8
Description: The PD-L1-Fc fusion protein was diluted to 1 μg/ml with PBS buffer, added to a 96-well plate at 100 μl/well, and placed at 4° C. overnight. The PBS buffer in the 96-well plate was removed, and the plate was washed 6 times with PBST (pH 7.2 PBS containing 0.1% Tween 20) buffer. PBS/10% BSA was added at 200 μl/well and incubated at 37° C. for 2 h for blocking. The blocking solution was removed, and the plate was washed 6 times with PBST. […] The reaction system was removed, and the plate was washed 6 times with PBST. HRP (horseradish peroxidase)-labeled anti-human IgG-Fab secondary antibody was diluted with PBST/0.05% BSA at 100 μl/well and incubated at 37° C. for 1 h. After washing the plate 6 times with PBST, 80 μl/well TMB (tetramethylbenzidine) was added and incubated at room temperature for 3 min. 4 M sulfuric acid was added at 80 μL/well to terminate the reaction. The absorbance was read at 450 nm using a microplate reader.

[4] = molecular target: T2, PD-L1 on the surface of tumor cells …; experiment: flow cytometry on A375 and A549 cells
Description: Human melanoma A375 cells and human lung adenocarcinoma A549 cells were diluted to 1×10⁶ cells/mL with PBS and added to 1.5 mL EP tubes at 100 μL/tube. 10 μL/tube of rat serum was added and blocked at 4° C. for 30 minutes. […] 1 mL of PBS was added to the EP tube. The system was centrifuged at 4° C. and 3500 rpm for 5 min. The supernatant was discarded, and the system was washed again with PBS. After centrifugation, the supernatant was discarded, and the cells were resuspended with 100 μL/tube PBS. 1 μL/tube of Alexa-647-labeled rat anti-human secondary antibody (Biolegend) was added and incubated at 4° C. in the dark for 30 min. The system was washed twice with PBS, and the supernatant was discarded after centrifugation. The cells were resuspended with 200 μL/tube PBS and detected by flow cytometry.

[5] = molecular target: T1, Human PD-L1-Fc fusion protein …; experiment: ELISA

Binder	binding result [1]	binding result [2]	binding result [3]	binding result [4]	binding result [5]
B1	binds	binds	–	–	–
B2	–	–	binds	binds	–
B3	–	–	–	binds	binds
